Measurements as given in patent publication US20070111222.

Test system: T1, fluorogenic peptide CAGSGSGPR-AMC (AMC=7-amino-4-methyl-coumarin)
T1 sequence: CAGSGSGPR

Substance: trypsin
- release of fluorescent AMC (cleavage of the immobilized fluorogenic peptide): Adding trypsin to these disks results in the release of fluorescent AMC
